Assay results as given in publication PMC11584738.

Target: His-GST-TRP (without signal peptide) (Verticillium dahliae strain V991)
Assay: MST

“GST-CTL1 (without signal peptide) (natural protein)” gave a Kd of 1.79 µM.
